Consider four molecules from PMC3326319.

The target of series [1] is T1, PhNob1Zn (Pyrococcus horikoshii, UniProt O58440 121-161).
T1 chain: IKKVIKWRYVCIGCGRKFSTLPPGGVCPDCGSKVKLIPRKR
In words: NMR titration.

Series [2] has as its target T1, PhNob1Zn. The series is described as follows: fluorescence anisotropy. On the technique in general: Polarisation of emitted light reports the rotation of a fluorescent probe.
The target of series [3] is T2, PhNob1 (Pyrococcus horikoshii, UniProt O58440 1-161).
T2 sequence: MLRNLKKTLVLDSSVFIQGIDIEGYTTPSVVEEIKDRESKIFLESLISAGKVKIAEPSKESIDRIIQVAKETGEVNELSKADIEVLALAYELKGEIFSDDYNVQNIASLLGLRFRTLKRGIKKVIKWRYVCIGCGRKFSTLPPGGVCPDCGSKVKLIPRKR
The series is described as follows: fluorescence anisotropy.

In series [1], GACUGCCGGCGAUAAGCCGGAGGAAG (structured_RNA) [PhH40 unlabeled (gel filtration, NMR)] displayed a Kd of less than 1000 nM.

Take CCGGCGAUAAGCCGG (structured_RNA) [PhH40short (H40S)]: the equilibrium dissociation constant (Kd) in series [2] was determined as 3100 ± 200 nM. In the case of GACUGCCGGCGAUAAGCCGGAGGAAG (structured_RNA) [PhH40 (helix 40)], the equilibrium dissociation constant (Kd) in series [3] stood at 2000 ± 100 nM; in series [2], 2300 ± 100 nM. For UACAGGGCCCAUUGGGGCCCUGUA (structured_RNA) [ScH16 (stabilized)], in series [2], binding was characterised by a dissociation constant (Kd) of 1500 ± 200 nM.

Usually Kd stands for the constant that tells how readily two partners part at equilibrium. A lower Kd goes with higher affinity.
